Data: PMC11286415

Assays:
[1] = target: Trypanosoma brucei multi-aminoacyl-tRNA synthetase complex (MSC)-associated protein 3 (MCP3), wild type (Trypanosoma brucei); experiment: ITC; dimer to monomers: 250 uM WT MCP3 in the syringe injected into buffer in the cell (50 mM glycylglycine pH 8.0, 300 mM NaCl, 2 mM DTE); 13 injections of 1 uL, 25°C
[2] = target: Trypanosoma brucei multi-aminoacyl-tRNA synthetase complex (MSC)-associated protein 3 (MCP3), wild type (Trypanosoma brucei); experiment: SEC-MALS; 300 ug protein at 3 mg/mL in 100 uL; 30 mM Tris-HCl pH 8.0, 100 mM NaCl, 5 mM MgCl2, 2 mM DTT; incubated at 27°C for 1 h; Superdex 200 Increase 10/300 GL, 0.5 mL/min; no tRNA
[3] = system: WT MCP3 (Trypanosoma brucei); experiment: ITC; conditions: 1 mM Mg2+; unmodified in vitro transcript; ITC: 20 mM MOPS pH 7.8, 100 mM NaCl, 2 mM DTE, 1 mM MgCl2, 25 C, 30 uM protein in cell, 300 uM tRNA in syringe; SEC-MALS: preincubation 27 C, run at 4 C …
[4] = system: ΔN MCP3 (Trypanosoma brucei); experiment: ITC; conditions: unmodified in vitro transcript; ITC: 20 mM MOPS pH 7.8, 100 mM NaCl, 2 mM DTE, 1 mM MgCl2, 25 C, 30 uM protein in cell, 300 uM tRNA in syringe; SEC-MALS: preincubation 27 C, run at 4 C …

| Kd [1] | stoichiometry N [2] | Substance | Kd [3] | Kd [4] |
| --- | --- | --- | --- | --- |
| 2600 nM | 2 | Trypanosoma brucei multi-aminoacyl-tRNA synthetase complex (MSC)-associated protein 3 (MCP3), wild type (enzyme) | – | – |
| – | – | tRNAAla | 1120 nM | – |
| – | – | tRNAPro | 1050 nM | 809 nM |
